Test results reported in the RNAGym collection of RNA variant scans (doi:10.7554/elife.80360).

B1: HDV Ribozyme (parent)
chain: GGCCGGCAUGGUCCCAGCCUCCUCGCUGGCGCCGGCUGGGCAACAUUCCGAGGGGACCGUCCCCUCGGUAAUGGCGAAUGGGACCCA

Variants of: B1
Experiment: self-cleavage, relative activity (ratio to wild type); higher = more cleavage; co-transcriptional

Point of comparison: G25A U27A, self-cleavage 0.161. Against it:
- G25A G67A — higher, 0.299
- C24U C41A — higher, 0.608
- C26A C64G — higher, 0.95
- G25C U65A — lower, 0.155
- C24A U46C — higher, 0.269
- C24A U46G — higher, 0.554
- G25U G52C — higher, 0.208
- C24U U79C — the same, 0.161
- G25U U27G — higher, 0.185
- G25A A43U — lower, 0.0437
- G25C A87G — higher, 0.174
- C24A G81A — lower, 0.0852
- C24A G81C — higher, 0.17
- G25C G80U — lower, 0.126
- G25U C41U — higher, 0.188
- G25U C30G — lower, 0.148
- G25U C30A — lower, 0.158
- C24G C85G — lower, 0.125
- C24G G38U — lower, 0.0268
- C24G G76U — higher, 0.339
- C24G G76A — lower, 0.101
- C24U C75U — higher, 0.197
- G25A C58A — higher, 0.237
- G25A C58G — lower, 0.111
- G25U G55U — lower, 0.151
- C26A G74C — higher, 0.237
- C26A G74U — higher, 0.519
- G25A C30U — lower, 0.143
- G25A A83U — lower, 0.0678
- G25A C41U — lower, 0.155
- G25A C64G — lower, 0.13
- G25A C64U — higher, 0.204
- C24A U47G — higher, 0.434
- C24A U47C — higher, 0.508
- G25C C66G — lower, 0.0978
- G25C G55U — lower, 0.089
- G25A C61A — higher, 0.201
- C24A U65C — higher, 0.658
- G25U G29A — lower, 0.0369
- G25U G28A — lower, 0
- C24G G80U — lower, 0.0746
- C24G G80A — lower, 0.0791
- G25A G76C — higher, 0.217
- G25C C85A — lower, 0.0594
- C24U A51U — higher, 0.681
- C24U A51C — higher, 0.767
- C26G A51C — higher, 1.13
- C24A G68A — higher, 0.678
- C26G C57U — higher, 1.02
- G25C G82C — lower, 0.0326
- G25C G82U — lower, 0.0755
- G25U G81U — lower, 0.138
- C24G C57G — higher, 0.192
- C24G G81A — lower, 0.0332
- C24G U69G — higher, 0.332
- C24G U69C — lower, 0.0354
- C24G G39A — lower, 0.0845
- C24G G39C — higher, 0.18
- G25C U60C — lower, 0.0504
- C26A G52C — higher, 0.872
- G25A C63U — higher, 0.289
- C26A U27C — higher, 1.04
- C26A U27G — higher, 0.733
- C24U G76U — higher, 0.917
- G25U G31C — lower, 0.101
- G25U G31U — lower, 0.0875
- C24G G73C — lower, 0.107
- G25A C66A — higher, 0.287
- C24U G34U — higher, 0.17
- G25U U79A — lower, 0.0875
- G25U C75A — lower, 0.0941
- G25U C75G — lower, 0.128
- C24G U37C — lower, 0.119
- C24U U60C — higher, 0.752
- C24U U60A — higher, 0.627
- C24G A42C — lower, 0.101
- G25C C36U — lower, 0.0978
- G25A U37C — lower, 0.141
- G25A U37A — higher, 0.213
- C26G C58U — higher, 0.931
- G25A G82U — lower, 0.119
- G25A U60C — lower, 0.138
- G25A U60A — higher, 0.295
